Cf = 5(6)-carboxyfluorescein
B1: Metchnikowin-1 (P4), Drosophila melanogaster, Cf-[residues removed]-NH2 (peptide)
peptide: Cf-HRHQGPIFDTRPSPFNPNQPRPGPIY-NH2
notes: metchnikowin 1 of Drosophila melanogaster; source: synthetic peptide (PANATecs, Tübingen), purified to >95%
B2: Abaecin (P3), Bombus pascuorum, Cf-[residues removed]-NH2 (peptide)
peptide: Cf-FVPYNPPRPGQSKPFPSFPGHGPFNPKIQWPYPLPNPGH-NH2
notes: abaecin of Bombus pascuorum, 39 residues; also called B. pascuorum abaecin; source: synthetic peptide (PANATecs, Tübingen), purified to >95%
B3: Metalnikowin I (P1), Palomena prasina, Cf-VDKPDYRPRPRPPNM-NH2 (peptide)
peptide: Cf-VDKPDYRPRPRPPNM-NH2
notes: metalnikowin I of Palomena prasina; source: synthetic peptide (PANATecs, Tübingen), purified to >95%
B4: Metalnikowin IIA (P2), Palomena prasina, Cf-VDKPDYRPRPWPRPN-NH2 (peptide)
peptide: Cf-VDKPDYRPRPWPRPN-NH2
notes: metalnikowin IIA of Palomena prasina; source: synthetic peptide (PANATecs, Tübingen), purified to >95%
B5: Metchnikowin-2 (P5), Drosophila melanogaster, Cf-[residues removed]-NH2 (peptide)
peptide: Cf-HRRQGPIFDTRPSPFNPNQPRPGPIY-NH2
notes: metchnikowin 2 of Drosophila melanogaster; source: synthetic peptide (PANATecs, Tübingen), purified to >95%

target: T1, DnaK–BHQ10 (E. coli chaperone DnaK labelled with Black Hole Quencher 10) (E. coli, UniProt P0A6Y8 1-638, BHQ10 (from BHQ10-NHS-ester), labelling ratio 1 : 9 DnaK : BHQ10); assay: FRET or BRET; FRET-based quenching assay in solution: fluorescein-modified peptide (50 μl, 1.3 nmol/l) mixed with a serial dilution of DnaK–BHQ10 (50 μl, 0.8–13 000 nmol/l, 1 : 4 series) in modifying buffer (20 mmol/l Na2HPO4, 20 mmol/l KH2PO4, 5 mmol/l MgCl2, 150 mmol/l KCl, pH 7.4), black 384-well plate, 2 h; Kd by non-linear regression (dose-response logistical function, SlideWrite) of quenching against DnaK …; conditions: both partners purified
T1 construct: chaperone DnaK of Escherichia coli; also called bacterial DnaK; quencher-labelled bacterial DnaK probe; source: produced by Michael Zahn [50]; dialysed and labelled with BHQ10-NHS-ester
T1 sequence (P0A6Y8 whole entry): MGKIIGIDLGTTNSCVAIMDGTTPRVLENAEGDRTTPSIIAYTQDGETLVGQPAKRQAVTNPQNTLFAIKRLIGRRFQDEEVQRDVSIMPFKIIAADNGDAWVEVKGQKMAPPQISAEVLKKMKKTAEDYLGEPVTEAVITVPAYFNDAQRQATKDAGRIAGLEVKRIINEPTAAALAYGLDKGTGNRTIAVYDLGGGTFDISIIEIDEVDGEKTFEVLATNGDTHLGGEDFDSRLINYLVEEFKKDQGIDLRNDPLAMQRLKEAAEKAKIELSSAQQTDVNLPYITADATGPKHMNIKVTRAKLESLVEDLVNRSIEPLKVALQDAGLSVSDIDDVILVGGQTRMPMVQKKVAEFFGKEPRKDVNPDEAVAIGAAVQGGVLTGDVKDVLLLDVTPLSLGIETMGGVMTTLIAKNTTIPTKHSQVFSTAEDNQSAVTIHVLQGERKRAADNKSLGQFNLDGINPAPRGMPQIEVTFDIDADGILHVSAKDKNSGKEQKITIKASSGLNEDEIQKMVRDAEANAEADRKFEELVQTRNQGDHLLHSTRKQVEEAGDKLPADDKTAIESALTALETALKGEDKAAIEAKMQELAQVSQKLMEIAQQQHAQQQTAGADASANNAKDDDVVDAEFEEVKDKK

Going from B1 to B2, the Kd falls from greater than 5 µM to 0.19 ± 0.03 µM. The second binds more tightly here.

B3 and B4 cannot be ordered by Kd: greater than 5 µM for the first, greater than 5 µM for the second.

B5 gave a Kd greater than 5 µM.
